Test: yeast display, Sf9 membrane polyspecificity reagent, FACS + sequencing; frameworks hold sequencing errors
How it was run: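 In a synthetic yeast display library (Saccharomyces cerevisiae BJ5465), nanobody expression was induced with galactose for 36–48 hours. FACS gates were set low and high (top ~1%) using anti-HA fluorescence for expression and streptavidin fluorescence for binding of the Sf9 membrane reagent. Each polyreactivity label is drawn from the gate of origin.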

| Sequence | polyreactivity (PSR sort gate) |
| --- | --- |
| HVQLVESGGGLVQAGGSLRLSCAASGFTFNYNALGGYRQAPGKERELVAAIRRSGGSTYYADSVKGRFTISRDNAKNTVYLQMNSLKPEDTAVYYGAARQSFLYGDWGQGTQVTVSS | high polyreactivity |
| QVQLVESGGGLVQAGGSLRLSCAASGSIFRLYAMGWYRQAPGKERELVAVISYSGGSTYYADSVKGRFTISRDNAKNTVYLQMNSLNPEDTAVYYCAARRRWYGIRNYYWGQGSQVTVSS | high polyreactivity |
| QVQLVESGGGLVQAGGSLRLSCAASGSTFIFYAMGWYRQAPGKERELVAAISWSGGSTYYADSVKGRFTISRDNAKYTVYLQMNSLKPEDTAVYYCITLHRYSSERYDYWGQGTQVTVSS | high polyreactivity |
| QVQLVESGGGLVQAGGSLRLSCAASGRTFRLFAMGWYRQAPGKERELVAAIRSGGNTNYADSVKGRFTISRDNAKNTVYLQMNSLKPEDTAVYYCAATTYVVASRYVGSLGDDYWGHGTQVTVSS | high polyreactivity |
| QVQLVESGGGLVQAGGSLRLSCAASGFTTAYAMGWYRQAPGKERELVAAISSGGSTYYADSVKGRFTISRDNAKNTVYLQMNSLKPEDTAVYYCATGPYYGYDEFDYWGQGTQVTVSS | low polyreactivity |
| QVQLVESGGGLVQAGGSLRLSCAASGSILFNNAMGWYRQAPGKERELVAAIRSNGGNTYYADSVKGRFTISCDNAKNTVYLQMNSLKPEDTAVYYCAAEKTLYGGGGWTRWFHYTYGYWGQGTQVTVSS | high polyreactivity |
| QVQLVESGGGLVQAGGSLRLSCAASGRTFPGYAMGWYRQAPGKERELVATITFSDGSTYYADSVKGRFTISRDNAKNSVYLQMNSLKPEDTAVYYCNARRSYFLRYGVNYWGQGTQVTVSS | low polyreactivity |
| QVQLVESGGGLVQAGGSLRLSCAASGSTFWWYAMGWYRQAPGKEREFVAAITSTGGSTYYADSVKGRFTISHDNAKNTVYLQMNSLKPEDTAVYYCAVRLYLEMDYWGQGTQVTVSS | high polyreactivity |
| QVQLVESAGGLVQAGGSLRLSCAASGPTFAYNDMGWSRQAPGKERELVAAISWSDGTTYYADSVKGRFTISRDNAKNTVYLQMNSLKPEVTAVYYCAGESYPSEVASYVSEYDYWGQGTQVTVSS | low polyreactivity |
| QVQLVESGGGLVQAGGSLRLSCAASGLTFHAYAMGWYRQAPGKEREFVAAITRSGSSTSYAYSVKGRFTISRDNAKNTVYLQMNSLKPEDTAVYYCAAQGSRKYRNDYWGQGTQVTVSS | high polyreactivity |
| QVQLVESGGGLVQAGGSHRLSCAASGSIYLYYAMGRYRQAPGKERELVAGINRVGSTNYADSVKGRFTISRDNAKNTVYLQMNSLKPEDTAGYYCAKVVNGGYFYYQYPAQYYYWGQGTQVTVSS | low polyreactivity |
| QVQLVESGGGLVQAGGSLRLSCAASGRIFTGNAMGWYRQAPGKEREWVATITRRGGSTYYADSVKGRFTISRDNAKNTVYLQMNSLKPEDTSVYYCAANRMFSNDKYGYWGQGTQVTVSS | high polyreactivity |
| QVQLVESGGGLVQAGGSLRLSCAASGRTFPHYAMGWYRQAPGKVRELVAAISSRGGSTYYADSVKGRFTISRDNVKNTVYLQMNSLKPEDTAVYYCAATVGLYRSREYGYWGQGTQVTVSS | low polyreactivity |
| QVQLVESGGGLVQAGGSLRLSCAASGSTFLRYAMGWYRQAPGKERELVADITTSGGITYYADSVKGRFTISRDNAKNTVYLQMNSLKPEDTAVYYCAARYLPYRRIKYDYWGQGTQVTVSS | low polyreactivity |
| QVQLVESGGGLVQAGGSLRLRCAASGRTFYGYAMGWYRQAPGKEREFVAAITYTGGRTYYADSVKGRFTISRDNAKNTVYLQMNSLKPEDTAVYYCNAYYYYVNQGRFEYGYWGQGTQVTVSS | high polyreactivity |
| QVQLVESGGGLVQAGGSLRLSCAASGNTIFPSTMGWYRQAPGKEREFVAAMTWSGVSTYYADSVKGRFTISRDNAKNTVYLQMNSLKPEDTAVYYCAARGPVYVSYPRQYGYWGQGTQVTVSS | high polyreactivity |

| Sequence | polyreactivity (PSR sort gate) |
| --- | --- |
| QDQLVESGGGLVQAGGSLRLSCAASGSTFNAYAMGWYRQAPGKERELVADISISGGTYYADSVKGRFTISRDNAKNTVYLQMNSLKPEDTAVYYCAAKPSWHGVYYWGQGTQVTVSS | low polyreactivity |
| QVQLVESGGGLGQAGGSLLLSCAASGTFYTYAMGWYRQAPAKERELVAAINGGGRTYYADSVKGRITISRDNAKNSVYFQMNSLKPEDTAVYYCAAVRRISRYDYWGQGTQVTVSS | high polyreactivity |
| QVQLVESGGGLVQAGGSLRLSCAASGFTFKSYTMAWYRHAPGKERELVANISRRGGSTYYADSVKGRFTLSRDNAKNTVYLQMNSLKPEDTAVYYCAADAYGFLDTTYRYFYWGQGSQVTVSS | high polyreactivity |
| QVQLVESGGGLVQAGGSLRLSCAASGSTLFYNDMGWYRQAPGKEREFVAAIRSNDGSTYYADSVKGRFTISRDNAKNTVYLQMKSLKPEDTAVYYCNKDVWDGYDWPEFDYWGQGTQVTVSS | low polyreactivity |
| QVQLVESGGGLVQAGGSLRLSCAASGRTFVGYAMGWYRQAPGKEREFVADITYDSGSTYYADSVKGRFTISRDNAKNTVYLQMNSLKPEETAVYYCAAPDYWAYTRSMDYWGQGTQVTVSS | high polyreactivity |
| QVQLVESGGGLVQAGGSLRLSCAASGFIFSIYAMGWYRQAPGKERELVAGIDNGGGTYYADSVKGRFTISRDNAKNTVYLQMNSLKPEDTAVYYCAADTYSIGELYDYWGQGTQVTVSS | low polyreactivity |
| QVQLVESGGGLVQAGGSLRLSCAASGSTFYDYAMGWYRQAPGKERELVAAINWSSDTTYYADSVKGRFTISRDNAKNTVYLQMNSLKPEDTAVYYCATDSAYRGYDYWGQGTQVTVSS | low polyreactivity |
| QVQLVESGVCLVQAGGSLRLSSAASGRTLDQNTMGRYRQAPGKERELVASITYSGGITYYADSVKGRFTISSDNAKNTVYLQMNSLKPEATAVYYCAAQEHGTYDNILGEPLDYWGQGTQVTVSS | low polyreactivity |
| QVQLVESGGGLVQAGGSLRLSCAASGRILLRNVMGWYRQAPGKERELVAVITRTGITYYADSVKGRFTISRDNAKNTVYLQMNSLKPEDTAVYYCAAGLPKYEHDYWGQGTQVNVSS | low polyreactivity |
| QFQLVESGGGLVQAGGSLRLTCAASGSIFLWYAMGWYRQAPGKERELVAVITSSGGTTYYADSVKGRFTISRDNAKNTVYLQMNCLKPADTAVYYCAADFYRHPPGSLTKLYYYWGQGTQVTVSS | low polyreactivity |
| QVQLVESGGGLVQAGGSLRLSCAASGITFYANTMGWYRQAPGKERELVAAISGIGGSTYYADSVMGRFAISRDNAKNTVYLQMNSLKPEDTAVYYCNADVYYFLFGTFDYWGQGTQVTVSS | low polyreactivity |
| QVQLVESGGGLVQAGGSLRLSCAASGFIFADNTMGWNRQAPGKERELVAAISRRGGSTYYADSVKGRFTISRDNAKNTVYLQMNSLKPEDTAVYYCAARPFVKHDYWGQGTQVTVSS | high polyreactivity |
| QVQLVESGGGLVQAGGSLRLSCAASGRIFYYYMAWYRHAPGKERELVAAITRGGGTYADSVKGRFTISRDNAKNTVYLQMNSLKPEDTAVYYCAAYPRGARRLDYWGQGTQVTVSS | high polyreactivity |
| QVQLVESGGGLVQAGGSLRLSCAASGSTFSSNAMGWYRQAPGKERELVAAINRRGGTYYADSVKGRFTISRDNAKNTVYLQMNSLKPEDTAVYYCAAASPYHEYDYCGQGTQVTVSS | low polyreactivity |
| QVQLVESGGGLVQAGGSLRLSCAASGRTFSYNVMGWYRQAPGKERELVASTYYADSVKGRFTISRDIAKNTVYLQMNSVKPEDTAVYYCNRDKPGLFFTSYNYSSSYDYWGQGTLVTVSS | low polyreactivity |
| QVQLVESGGGLVQAGGRLRLSCAASGSTFGSNVMGWYRQAPGKERELVASISSGGRTKYADSVKGRFTISRDNAKNTVYLQMNSLKPEDTAVYYCNTRLRKKNSRDYDYWGQGTQVTVSS | low polyreactivity |

Reference: the nanobody polyreactivity screen of Harvey et al. (2022)
